This is an account of results in the Immune Epitope Database (IEDB).

Broadly, the Kd is the constant that tells how readily two partners part at equilibrium.

For one experiment, the target named is HLA-B*18:01. Put plainly: IEDB peptide-MHC binding, purified MHC/competitive/radioactivity; filed as Kd, often an IC50 or EC50 that approximates it; ≥ and ≤ were set here for values at or beyond the usual limits of such assays.
A further experiment concerns the target HLA-B*40:01. The experiment is described as above.
The target in another experiment is HLA-B*40:02. Described as above.
A further experiment deals with HLA-B*44:02. The description is as above.
In a further experiment the target is HLA-B*44:03. The description is as above.
For a further experiment, the target named is HLA-B*45:01. The description is as above.
Another experiment deals with HLA-B*07:02. The experiment is described as above.
In another experiment the target is HLA-B*35:01. The description is as above.
Experiment [1] concerns the target HLA-B*51:01. Described as above. Conditions: source organism: Dengue virus 3 Martinique/1243/1999.
In a further experiment the target is HLA-B*53:01. The experiment is described as above. As to conditions: source organism: Dengue virus 3 Martinique/1243/1999.
The next experiment has as its target HLA-A*02:02. The experiment is described as above. As to conditions: source organism: Trypanosoma cruzi.
The next experiment addresses HLA-A*02:03. The description is as above. Conditions: source organism: Trypanosoma cruzi.
Another experiment deals with HLA-A*02:06. The experiment is described as above.
The target in another experiment is HLA-A*68:02. The experiment is described as above.
The next experiment addresses HLA-A*26:01. Briefly: IEDB peptide-MHC binding, purified MHC/competitive/fluorescence; filed as Kd, often an IC50 or EC50 that approximates it; ≥ and ≤ were set here for values at or beyond the usual limits of such assays. As to conditions: source organism: Escherichia coli str. K-12 substr. MG1655.
The next experiment has as its target HLA-B*15:01. The description is as above. Conditions: source organism: Escherichia coli str. K-12 substr. MG1655.
Experiment [2] deals with HLA-B*51:01. Described as above.
Setting [3] is: source organism: Dengue virus 4 Philippines/H241/1956.
[4] abbreviates: source organism: Dengue virus 2 Jamaica/1409/1983.
[5] abbreviates: source organism: Trypanosoma cruzi.
[6] abbreviates: source organism: SARS coronavirus Tor2.
[7] abbreviates: source organism: Dengue virus 1 Brazil/97-11/1997.
[8] abbreviates: source organism: Mammarenavirus machupoense.
[9] abbreviates: source organism: Lymphocytic choriomeningitis virus (strain Armstrong).

As for TEYDGHINL, the Kd was found to be 11.5 nM with HLA-B*18:01 (source organism: Variola virus); 6.19 nM with HLA-B*40:01 (source organism: Variola virus); 0.998 nM in the experiment with HLA-B*40:02 (source organism: Variola virus); 58.3 nM in the experiment with HLA-B*44:02 (source organism: Variola virus); 9880 nM with HLA-B*44:03 (source organism: Variola virus); 391 nM with HLA-B*45:01 (source organism: Variola virus).
IPKAYAGPF: the figures for the Kd in the experiment with HLA-B*07:02 (setting [3]) and with HLA-B*35:01 (setting [3]) were 7.32 nM and 290 nM, respectively.
Take MPSMKRFRKE: the Kd in the experiment with HLA-B*35:01 (source organism: Dengue virus 3 Martinique/1243/1999) was 14000 nM; in the experiment with HLA-B*51:01 [1], at least 69600 nM; with HLA-B*53:01, 10900 nM.
Take TPRMCTREE: the Kd with HLA-B*07:02 (setting [4]) was found to be 1930 nM.
On to RVSRPTTVV, for which the Kd in the experiment with HLA-A*02:02 was determined as 6200 nM; with HLA-A*02:03, 105 nM; with HLA-A*02:06 (setting [5]), 1340 nM; in the experiment with HLA-A*68:02 (setting [5]) it was 200 nM.
For HEFVDEFYAY, the dissociation constant Kd with HLA-B*18:01 (setting [6]) turned out to be 44.2 nM; with HLA-B*40:01 (setting [6]), 835 nM; in the experiment with HLA-B*40:02 (setting [6]) it was 331 nM; in the experiment with HLA-B*44:02 (setting [6]), 3500 nM; with HLA-B*44:03 (setting [6]), 85.9 nM; with HLA-B*45:01 (setting [6]), 7210 nM.
On to ALKANNKVY, for which the dissociation constant Kd in the experiment with HLA-A*26:01 is at least 20000 nM; with HLA-B*15:01 it was 708 nM.
As to FAIPIAEQI, the Kd with HLA-B*51:01 [2] (source organism: Listeria monocytogenes serotype 4b str. CLIP 80459) is at least 20000 nM.
MTCIAVGMV: in the experiment with HLA-A*68:02 (setting [7]), the Kd was 7.63 nM.
On to GPLIAGGML, for which the Kd with HLA-B*07:02 (setting [7]) is 127 nM.
In the case of REAACCHLA, the Kd in the experiment with HLA-B*18:01 (setting [6]) is at least 31400 nM; in the experiment with HLA-B*40:01 (setting [6]), 236 nM; in the experiment with HLA-B*40:02 (setting [6]), 97.5 nM; with HLA-B*44:02 (setting [6]), 3030 nM; in the experiment with HLA-B*44:03 (setting [6]) it was 1910 nM; with HLA-B*45:01 (setting [6]) it was 11.4 nM.
As for MTYLPAWQV, the Kd in the experiment with HLA-B*51:01 [2] (source organism: Yersinia pestis Nepal516) was at least 20000 nM.
For AENVIVGLV, the Kd in the experiment with HLA-B*18:01 (setting [8]) is at least 77500 nM; in the experiment with HLA-B*40:01 (setting [8]), 2930 nM; with HLA-B*40:02 (setting [8]), 30 nM; with HLA-B*44:02 (setting [8]) it was 142 nM; with HLA-B*44:03 (setting [8]), 340 nM; with HLA-B*45:01 (setting [8]) it was 3.39 nM.
With LVMLLVHYAI, the results for the Kd with HLA-A*02:06 (setting [3]) and with HLA-A*68:02 (setting [3]) were 151 nM and 1260 nM, respectively.
In the case of QEKAPDVGEL, the Kd with HLA-B*18:01 (setting [8]) was at least 44600 nM; with HLA-B*40:01 (setting [8]), 13000 nM; with HLA-B*40:02 (setting [8]), 1070 nM; in the experiment with HLA-B*44:02 (setting [8]), 2340 nM; with HLA-B*44:03 (setting [8]), at least 20900 nM; in the experiment with HLA-B*45:01 (setting [8]), 7030 nM.
Take AEILPDTTY: the Kd with HLA-B*18:01 (setting [9]) was 1410 nM; with HLA-B*40:01 (setting [9]), 6010 nM; with HLA-B*40:02 (setting [9]), 14000 nM; with HLA-B*44:02 (setting [9]) it was 97.8 nM; with HLA-B*44:03 (setting [9]), 100 nM; with HLA-B*45:01 (setting [9]), 1230 nM.
As to FANYNFTLL, the Kd in the experiment with HLA-A*02:02 is 0.0839 nM; with HLA-A*02:03, 3.42 nM; in the experiment with HLA-A*02:06 (setting [5]), 0.122 nM; with HLA-A*68:02 (setting [5]) it was 0.151 nM.
For the sequence CEKALKYLPI, the Kd with HLA-B*18:01 (setting [6]) was at least 29100 nM; with HLA-B*40:01 (setting [6]) it was 6970 nM; with HLA-B*40:02 (setting [6]), 30.3 nM; with HLA-B*44:02 (setting [6]), 127 nM; with HLA-B*44:03 (setting [6]), 1150 nM; in the experiment with HLA-B*45:01 (setting [6]), 104 nM.
On to TEVVGNVIL, for which the Kd in the experiment with HLA-B*18:01 (setting [6]) was 5870 nM; with HLA-B*40:01 (setting [6]), 14.9 nM; in the experiment with HLA-B*40:02 (setting [6]), 177 nM; with HLA-B*44:02 (setting [6]) it was 15200 nM; with HLA-B*44:03 (setting [6]), 6820 nM; with HLA-B*45:01 (setting [6]) it was 15100 nM.
As to EIAETQHGTI, in the experiment with HLA-A*68:02 (setting [4]), the Kd was determined as 101 nM.
